Data: US20230266303A1, “SYSTEM” (GTINVENT LIMITED, priority 2020, published 2023)
“Also recorded” adds a separate entry of the source.

Tests used:
Assay type in all cases: biochemical
dGAE [1] = molecular target: T1, dGAE (Homo sapiens, UniProt P10636); test: Tau aggregation inhibition assay in vitro, circular dichroism; details: 100 μM dGAE + 25 μM s1D12 (4:1)
T1 construct: dGAE, corresponding to amino acid residues 297-391 using numbering from 2N4R tau; made in house
Procedure: (§1) dGAE protein was diluted into 10 mM phosphate buffer, pH 7.4 (PB) with monoclonal antibody s1 D12 at a ratio of 4:1 protein:Ab (100 μM dGAE+25 μM s1D12 and 10 μM dGAE+2.5 μM s1D12) or 1:1 (25 μM dGAE+25 μM s1D12).
(§2) As a positive control, dGAE was prepared at a final concentration of 10, 25 or 100 μM in 10 mM PB. Negative controls consisted of dGAE with a non-tau IgG antibody at a ratio of 4:1 (10 μM dGAE+2.5 μM anti-ovalbumin), or antibody alone (25 or 2.5 μM s1D12 and 2.5 μM anti-ovalbumin). Samples were agitated at 700 rpm at 37° C. for 3 days.
(§3) For CD, 60 μL sample was placed in a 0.1 mm quartz cuvette and placed into a JASCO spectropolarimeter. 100 μL ThS in 20 mM MOPS buffer was added to 50 μL of each sample to a final concentration of 20 μM, mixed well, incubated at room temperature for 10 minutes then fluorescence intensity measured in a Cary Eclipse spectrophotometer using an excitation wavelength of 440 nm. Baseline readings from 10 mM PB were subtracted from CD and ThS measurements.

dGAE [2] = molecular target: T1, dGAE; test: Tau aggregation inhibition assay in vitro, TEM
Procedure: as §1, §2
Transmission electron microscopy (TEM), circular dichroism (CD) and Thioflavin S (ThS) assays were performed as detailed in Al-Hilaly et. al. (2018) J. Mol. Biol. 430, 4119-4131. Briefly, TEM grids were prepared by adding 4 μL of sample to a carbon-coated grid followed by a wash with milli-Q filtered water then staining twice with 2% uranyl acetate. Grids were air dried and then imaged using a JEOL electron microscope operating at 80 kV.

dGAE [3] = molecular target: T1, dGAE; test: Tau aggregation inhibition assay in vitro, Thioflavin S fluorescence; details: 25 μM (1:1) and 100 μM (4:1) dGAE with s1D12
Procedure: as §1, §2, §3

T1 sequence (P10636 614-708): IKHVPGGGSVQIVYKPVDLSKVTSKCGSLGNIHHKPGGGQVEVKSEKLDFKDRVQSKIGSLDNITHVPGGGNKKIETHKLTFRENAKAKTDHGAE

- dGAE secondary structure in presence of antibody (CD, antibody spectrum subtracted) (dGAE [1]; listed as s1 D12): dGAE has not assembled into fibrils
- ThS emission peak at 483 nm of dGAE in presence of antibody (dGAE [3]): this signal was abolished
- ThS emission peak at 483 nm of dGAE in presence of antibody (dGAE [3]; listed as s1 D12): abolished
B1: s1D12: monoclonal antibody binding tau epitope within residues 337 to 349 or 341 to 353 of SEQ ID NO: 1 (antibody)
heavy: QVQLQESGPSLVKPSQTLSLTCTVSGFSLNNNAVGWVRQAPGKVPESLVGCSSDGTCYYNSALKSRLDITRDTSKNQISLSLSSVTTDDAAVYYCTRGHYSIYGYDYLGTIDYWGPGLLVTVSSAKTTAPSVYPLAPVCGDTTGSSVTLGCLVKGYFPEPVTLTWNSGSLSSGVHTFPAVLQSDLYTLSSSVTVTSSTWPSQSITCNVAHPASSTKVDKKIEPRGPTIKPCPPCKCPAPNLLGGPSVFIFPPKIKDVLMISLSPIVTCVVVDVSEDDPDVQISWFVNNVEVHTAQTQTHREDYNSTLRVVSALPIQHQDWMSGKEFKCKVNNKDLPAPIERTISKPKGSVRAPQVYVLPPPEEEMTKKQVTLTCMVTDFMPEDIYVEWTNNGKTELNYKNTEPVLDSDGSYFMYSKLRVEKKNWVERNSYSCSVVHEGLHNHHTTKSFSRTPGK
light: QAVLTQPSSVSGSLGQRVSITCSGSSSNVGGGNSVGWYQHLPGSGLKTIIYDTNSRPSGVPDRFSGSRSGNTATLTINSLQAEDEGDYYCVTGDSTTHDDLVGSGTRLTVLGGQPKSSPSVTLFPPSSEELETNKATLVCTITDFYPGVVTVDWKVDGTPVTQGMETTQPSKQSNNKYMASSYLTLTARAWERHSSYSCQVTHEGHTVEKSLSRADCS
- dGAE secondary structure in presence of antibody (CD, antibody spectrum subtracted) (dGAE [1]): dGAE cannot assemble into 3-sheet rich fibrils
- overall effect on assembly of dGAE into fibrils (dGAE [2]; collective finding of TEM, CD and ThS experiments): inhibits the assembly of dGAE into fibrils in vitro; also recorded: specifically inhibits the assembly of dGAE into fibrils
- fibril formation of dGAE in presence of antibody (TEM) (dGAE [2]; dGAE:antibody 4:1 or 1:1 (anti-ovalbumin 4:1, 10 μM dGAE), 700 rpm, 37° C., 3 days): no fibril formation is observed; also recorded: no fibrils were present
